The subject of experiment [1] is D. vulgaris biofilm. The experiment can be described thus: Biofilm formation assay, crystal violet staining, 96-well plates. The experiment is classed as cell-based, Desulfovibrio vulgaris Hildenborough. As to the method:
(§1) D. vulgaris, D. desulfuricans and plasmid-transformed strains of both of these bacteria were grown anaerobically in Modified Baar's medium (300 μL) in 96-well micro-titer plates (Fisher Scientific, cat no. 07-200-656) for 24 hours at 30° C. without shaking, after which time the planktonic cell turbidity in each well was measured spectrophotometrically at 620 nm using a Sunrise™ microplate reader (TECAN, Switzerland). The plates were then incubated under the same conditions for an additional 24 to 48 hours, after which biofilm formation was measured by crystal violet staining. For biofilm dispersal assays, 24 hours after seeding the plates for biofilm growth, arabinose (10 mM) was added to strains harboring plasmids allowing arabinose-based induction of DVU2956 (SEQ ID NO:2). The arabinose-treated strains were then incubated anaerobically for another 24 hours without shaking, after which time biofilm formation was measured by crystal violet staining.
For crystal violet staining, the liquid portion of the cultures was discarded and the wells were washed by dipping the plates into 1 L of distilled water, after which the plates were dried with paper towel. Crystal violet (0.1%, 300 μL) was added to each well and the plates were incubated for 20 minutes at room temperature. After discarding the bulk of the staining solution, the wells were washed three times with distilled water as above to remove unbound crystal violet. The wells were then soaked for 5 minutes in 95% ethanol (300 μL) to dissolve the remaining (bound) crystal violet, which was then measured spectrophotometrically at 540 nm using the Sunrise™ microplate reader. Normalized biofilm formation percentage values were calculated based on the ratio of […] to compare the degree of biofilm formation or dispersal.

The subject of experiment [2] is D. desulfuricans biofilm. The description is as above. The experiment is classed as cell-based, Desulfovibrio desulfuricans (DSM 12129). The following applies: at 24 hours; D. desulfuricans/pVLT33-Pdvu0304-dvu2956 vs D. desulfuricans/pVLT33-Pdvu0304. Here is the method:
as §1
(§2) For crystal violet staining, the liquid portion of the cultures was discarded and the wells were washed by dipping the plates into 1 L of distilled water, after which the plates were dried with paper towel. […] The wells were then soaked for 5 minutes in 95% ethanol (300 μL) to dissolve the remaining (bound) crystal violet, which was then measured spectrophotometrically at 540 nm using the Sunrise™ microplate reader. […]

For experiment [3], the system named is established D. vulgaris biofilms. The experiment in a line: Biofilm dispersal assay, arabinose induction, crystal violet staining. The format is cell-based, Desulfovibrio vulgaris Hildenborough. To be noted: after 24 hours; expression from inducible promoter PBAD on pMQ70; vs D. vulgaris/pMQ70. Here is the method:
as §1, §2

Experiment [4] deals with D. vulgaris biofilm cells. The experiment can be described thus: Hydrogen sulfide production assay (methylene blue spectrophotometric). The experiment is classed as cell-based, Desulfovibrio vulgaris Hildenborough. As to the method:
Hydrogen sulfide (H2S) by D. vulgaris strains was measured via a methylene blue spectrophotometric assay (Rabinowitz, 1978, Methods Enzymol. 53:275-277; incorporated herein by reference). Briefly, in this assay, N,N-dimethyl-p-phenylenediamine dihydrochloride is converted into methylthioninium chloride (methylene blue) by reacting with H2S dissolved in hydrochloride acid in the presence of ferric chloride. For a 96-well screening format, D. vulgaris was anaerobically grown in Modified Baar's medium in a 96-well plate (starting turbidity/OD of 0.05 at 600 nm, 150-μL culture volume) and incubated for 48 hours for biofilm formation. Anaerobically, 25 μL of each biofilm culture was transferred to another 96-well plate containing 225 μL deoxygenated water per well to render a 10-fold dilution of the transferred culture. Next, 5% N,N-dimethyl-p-phenylenediamine dihydrochloride (24.5 μL, prepared in 5.5 N HCl) (Sigma-Aldrich, cat. no. 536-46-9) was added to each well. After mixing the wells gently by pipetting and anaerobically incubating the mixes at room temperature for 3 minutes, the 96-well plate was removed from the anaerobic chamber and the absorbance at 670 nm of each well was measured using a Sunrise™ microplate reader.
For a more rigorous H2S assay, sealed glass vials were used to prevent H2S loss. D. vulgaris strains were grown anaerobically for 7 to 10 days in 10 mL of Modified Baar's medium with 2.5 g of sterilized glass wool to promote biofilm formation. Supernatants from these cultures were transferred by syringe to another sealed vial for dilution with 10 mL of PBS buffer. Anaerobically, 1 mL of diluted sample was then transferred by syringe to another sealed bottle with 125 μL of 12% sodium hydroxide and 3.25 mL of 1% zinc acetate (to fix the sulfide from H2S by forming ZnS precipitates). […] Water (2.125 mL) was added and mixed, and then at least 1 mL of each reaction was removed to determine absorbance at 670 nm.

In experiment [5] the test system is Pdvu2956 (dvu2956 gene regulatory sequence). The experiment in a line: Pdvu2956-mNeonGreen reporter fluorescence assay. The format is cell-based, E. coli BL21(DE3). To be noted: ectopic expression induced by 1 mM IPTG for 90 minutes; E. coli/pMQ70-Pdvu2956-mNeonGreen/pET27b-dvu2956; excitation 425 nm, emission 517 nm. An excerpt: A D. vulgaris dvu2956 gene regulatory sequence (SEQ ID NO:12), which comprises (in 5′ to 3′ direction) predicted promoter (SEQ ID NO:13) and 5′-untranslated region (5′-UTR) sequences (SEQ ID NO:14), was linked upstream of a synthetic ribosome binding site (RBS, SEQ ID NO:15) and a codon-optimized nucleotide sequence (SEQ ID NO:16) encoding a monomeric yellow-green fluorescent protein (mNeonGreen™, GenBank® Accession No. KC295282). This nucleotide sequence (provided as SEQ ID NO:17) was constructed in E. coli TG1 to render plasmid construct pMQ70-Pdvu2956-mNeonGreen (8164 bp) and then transferred into D. vulgaris (wild type) and E. coli strain BL21(DE3), the latter of which was already transformed with plasmid pET27b-dvu2956 (pET27b-dvu2956 allows for IPTG-induced expression of ectopic DVU2956 [SEQ ID NO:2]). PCR analyses confirmed the presence of plasmids pMQ70-Pdvu2956-mNeonGreen (in both strains) and pET27b-dvu2956 (in E. coli). Additional D. vulgaris and E. coli strains that were transformed with plasmid pMQ70 were prepared, and served as negative controls in the fluorescence assays described below.
A similar analysis was conducted to test whether Pdvu2956 can heterologously drive gene expression in bacteria other than sulfate-reducing bacteria. […]

Where [6] appears, read: at 48 hours, biofilm-specific expression from pVLT33-Pdvu0304-based construct in D. vulgaris, vs wild type and D. vulgaris/pVLT33-Pdvu0304.

B1: DVU2962: D. vulgaris Hildenborough protein, 577 aa, SEQ ID NO:8, expressed from pVLT33-Pdvu0304-dvu2962 (protein)
chain: MKNPLGTMLSRLRSVFDVPDEIAPERYRMLRRKITLLMTAVSVLPLLILTAVSYHQYQSTLTREIVTPVRALVNKTRHSFELFLAERSSTVSLLAKTYSMAELSDEKNLNRIFLALKGEFPGFVDLGVIDGRGVQVGYVGPYDVRGKNYSEADWYNRTRVKGVYISDVFMGFRRFPHIAIAVQRMNPDGSSWMLRATIETTQFDRLIASMGLDPESDAFLINTAGVLQTNSRFYGNVLDVMPMPVPHLSYEPSIIDTEDPEGRQIFLSSAFLQNADFAIVAVKPKTEILRPWTSLRSDLLIFVAFSVALIISAAFGFTDMLVRRMRDSDERRIAAFVQIEHTQKLSSIGRLAAGVAHEINNPLAIINEKAGLAADLIALSQDFPQKERFSAIVEAISRSVDRCRSITHRLLGFSRRMDATYEQLDVNGILKETMSFLEQEAVHRSITIGTSLDAGLPRITSDRGQLQQVFLNIINNAFAAVQDGGSVTLTTFAADGGMVGVSIQDNGKGMSEEVQRHIFEPFFTTKKTAGTGLGMFITYGIIKRLGGEIGINSREGVGTTVTVYLPQDAPAPQSLEN
modifications: Desulfovibrio vulgaris Hildenborough
Take B1: in experiment [1] (setting [6]), the “inhibition of biofilm formation” value was determined as 90%.

B2: DVU2964: D. vulgaris Hildenborough protein, 219 aa, SEQ ID NO:10, expressed from pVLT33-Pdvu0304-dvu2964 (protein)
chain: MRENACVGCLTASASHELQNALAVIRESAGLMQDLIALGGENIPRRERIVELLSLIQQQVARGGELAGGLNTLGHAWEEDDGDLARILEEFVILAGRMGRMRSVTVGLAPGESGLRAPSAGLALRVLLFDLLQTCLEEAPGCALTFAPARRDGIPGIHLRVGLARCDATTDVLRRLDAQLARLGARKEPDNGHGTPARDEPDGVLYYFTACPSATGHRA
modifications: Desulfovibrio vulgaris Hildenborough
In the case of B2, the “inhibition of biofilm formation” value in experiment [1] (setting [6]) worked out at 45%.

B3: DVU2960: D. vulgaris Hildenborough protein, 474 aa, SEQ ID NO:4, expressed from pVLT33-Pdvu0304-dvu2960 (protein)
chain: MKQASLPAGARIAGLVGRELALGPVFDAIPTGLAVLDADLRICLMNRALETMTGFTTAEVAGIPCRHVLRASVCLHRCPTRTAVCDATGGNAPCHAQEGDLLNRHRRRIPVRLTLAPLHDAQGQLCGWLHTAEDLSLVRELEERCSKGQASGPLVGRSVVMEELFRTVQALAQTETPVLITGETGTGKDAVAETIHKASPRGREPFVKASLSSLPDFLVESELFGHRKGAFPGAEEDKPGRFRMAQGGTLCLSELGDLPPAMQGRLVTFLDEGLVWPVGATDPVRCDVRLLVASNLDLEAMVASGRLREDLYSRLAAVRIHLPPLRERGEDLEFLLSHYLAHFAARLRKTIHGFSGKSLRVLLAYGFPGNVRELKNIVEYAATLCTGEVVMPSHLPAYLFHTRPAAAPPRAIERDTPKGAAEDEASARSSVVDLERRLIVDALARAGNRKGEAARILGWGRSTLWRKMKQFGLE
modifications: Desulfovibrio vulgaris Hildenborough
In the case of B3, the “inhibition of biofilm formation” value in experiment [1] (setting [6]) is recorded as 95%.

B4: DVU2956: D. vulgaris Hildenborough sigma 54-dependent enhancer-binding protein, 345 aa, SEQ ID NO:2, expressed in the bacteria from plasmids (protein)
chain: MSGKKLPHSGNSLPIEGTVSPQRETLQNGTDFLLLSGVMQRLRVLASQVASSDAPVLIHGETGTGKELFARLIHDMGIRAKKPFVAVNCGVHEGELFADKFFGHEQGAFTGAHRMSQGCFELASEGTLFLDEVGEIPGANQADFLRVLEEKRFRRIGGQRDIPFQARIVAASNRDLQEMVGQGQFRADLFYRLNVIPVVLPPLRARKEEVVPLARHFLTHYGDKYHRPGVRFAPETEQALAAYQWPGNVRELKNLVERIALLAPEGVLGPEHLPLELRSAAAVEVGVPHEVPEDLSLDRARREAEVRVILKAMRATGGNKGEAARLLGVSPRTLRYKFAEYALRF
modifications: Desulfovibrio vulgaris Hildenborough
For the molecule B4, the “inhibition of biofilm formation” value turned out to be 78±9% in experiment [2] and 48±11% in experiment [1] (at 24 hours, D. vulgaris (dvu2956-) complemented with pMQ70-Pdvu2956-dvu2956, vs D. vulgaris (dvu2956-)/pMQ70-Pdvu2956). Further, the “dispersal of established biofilms” value in experiment [3] is 42±4%. The “decrease of H2S production” value in experiment [4] (96-well culture, D. vulgaris/pVLT33-Pdvu0304-dvu2956 vs D. vulgaris/pVLT33-Pdvu0304) worked out at 51±2%; in experiment [4] (D. vulgaris (dvu2956-)/pMQ70-Pdvu2956-dvu2956 vs D. vulgaris (dvu2956-)/pMQ70-Pdvu2956), 45±13%. Besides, the “inhibition of H2S production” value in experiment [4] (sealed vials, biofilm-specific expression) was determined as 34.6±0.6%. In addition, in experiment [5], the “higher fluorescence signal vs negative control” value is given as ~14 fold.

Values taken from patent US12173292B2, “Controlling bacterial biofilms” (LANXESS Corporation, priority 2019, dated 2024).
